Results from patent US20150033371A1, “HAIR FOLLICLE STEM CELLS AND METHODS OF USE SAME” (University of Southern California, priority 2011, published 2015).

Tests used:
[1] = published reports; cited from earlier work
[2] = DMSO; cited from earlier work
[3] = system: hair germ; assay: subcutaneous injection of WNT activator 2 recombinant protein in mice, hair germ activation and hair cycle; type: in vivo; details: for hair germ activation: mice (FIG. 12); for telogen to anagen transition: mice (FIG. 13)
From the text: To further investigate the effect of WNT activator 2 in hair germ activation, mice received subcutaneous injection of WNT activator 2 recombinant protein.

Molecule | toxicity [1] | solubility [2] | hair germ activation [3] | hair germ activation ([3]; listed as WNT activator 2) | telogen to anagen transition [3] | telogen to anagen transition ([3]; listed as WNT activator 2)
c1cc(-c2cnn3cc(-c4ccc(OCCN5CCCCC5)cc4)cnc23)ccn1 [Dorsomorphin] | low toxicity | soluble in DMSO | – | – | – | –
WNT activator 2 recombinant protein: recombinant Wnt7a protein (wingless-type MMTV integration site family, member 7A), called WNT activator 2 (protein, UniProt O00755 32-349, looked up) Protein Wnt-7a: LGASIICNKIPGLAPRQRAICQSRPDAIIVIGEGSQMGLDECQFQFRNGRWNCSALGERTVFGKELKVGSREAAFTYAIIAAGVAHAITAACTQGNLSDCGCDKEKQGQYHRDEGWKWGGCSADIRYGIGFAKVFVDAREIKQNARTLMNLHNNEAGRKILEENMKLECKCHGVSGSCTTKTCWTTLPQFRELGYVLKDKYNEAVHVEPVRASRNKRPTFLKIKKPLSYRKPMDTDLVYIEKSPNYCEEDPVTGSVGTQGRACNKTAPQASGCDLMCCGRGYNTHQYARVWQCNCKFHWCCYVKCNTCSERTEMYTCK | – | – | induces precocious hair germ activation | induced precocious hair germ activation | promotes precocious telogen to anagen transition | promoted precocious telogen to anagen transition
